Results published in US10766952B2, “Methods for reducing migraine frequency in a subject in need thereof” (Beth Israel Deaconess Medical Center, Inc., priority 2017, dated 2020).

Test system: wide-dynamic range (WDR) trigeminovascular neurons
Test: Activation of central trigeminovascular neurons by cortical spreading depression (CSD), WDR neurons
Format: in vivo, rat
Method: Cortical spreading depression (CSD) was induced mechanically by inserting a glass micropipette (tip diameter 25 μm) about 1 mm into the visual cortex for 10 sec. At a propagation rate of 3-5 mm/min, a single wave of CSD was expected to enter the neuronal receptive field within 1-2 min of cortical stimulation. For verification of CSD, cortical activity was recorded (electrocorticogram) with a glass micropipette (0.9% saline, ˜1 megohm, 7 um tip) placed just below the surface of the cerebral cortex (approximately 100 μm). The electrocorticogram electrode was positioned about 6 mm anterior to the visual cortex. […]
The experimental protocol included two parts. […] In the first part, the baseline neuronal profile was established by (a) mapping the dural, cutaneous and corneal receptive field; (b) measuring responses (mean spikes/sec) to mechanical stimulation of the dura (with a fixed force), skin (brush, pressure, pinch) and cornea (brush), and (c) measuring spontaneous firing rate (recorded over 30 min prior to treatment). […] In the second part, CSD was induced 4 hours after administration of CGRP-mAb or isotype-conAb and 2 hours later (i.e., 6 hours after treatment) receptive field size, spontaneous activity rate, and response magnitude to stimulation of the dura, skin and cornea were measured again. […]

B1: fremanezumab (antibody)
heavy: EVQLVESGGGLVQPGGSLRLSCAASGFTFSNYWISWVRQAPGKGLEWVAEIRSESDASATHYAEAVKGRFTISRDNAKNSLYLQMNSLRAEDTAVYYCLAYFDYGLAIQNYWGQGTLVTVSSASTKGPSVFPLAPCSRSTSESTAALGCLVKDYFPEPVTVSWNSGALTSGVHTFPAVLQSSGLYSLSSVVTVPSSNFGTQTYTCNVDHKPSNTKVDKTVERKCCVECPPCPAPPVAGPSVFLFPPKPKDTLMISRTPEVTCVVVDVSHEDPEVQFNWYVDGVEVHNAKTKPREEQFNSTFRVVSVLTVVHQDWLNGKEYKCKVSNKGLPSSIEKTISKTKGQPREPQVYTLPPSREEMTKNQVSLTCLVKGFYPSDIAVEWESNGQPENNYKTTPPMLDSDGSFFLYSKLTVDKSRWQQGNVFSCSVMHEALHNHYTQKSLSLSPGK
light: EIVLTQSPATLSLSPGERATLSCKASKRVTTYVSWYQQKPGQAPRLLIYGASNRYLGIPARFSGSGSGTDFTLTISSLEPEDFAVYYCSQSYNYPYTFGQGTKLEIKRTVAAPSVFIFPPSDEQLKSGTASVVCLLNNFYPREAKVQWKVDNALQSGNSQESVTEQDSKDSTYSLSSTLTLSKADYEKHKVYACEVTHQGLSSPVTKSFNRGEC
notes: humanized anti-CGRP antagonist antibody, vectors ATCC PTA-6867 and PTA-6866
difference in WDR neurons activated by CSD versus isotype-conAb (5/13 versus 4/10): 2%
WDR neurons activated by CSD (case-by-case analysis) (male and female rats, activated/tested): 5/13
